US20240400693A1 (Chugai, published 2024)
Read-outs that look alike come from different tables or passages of the source.

What was measured:
HLA-DP on Ba/F3 cells = molecular target: T1, HLA-DP on Ba/F3 cells (human, UniProt P20036 29-222; P04440 30-225, limits assumed); assay: FACS, Ba/F3 cells; raw MFI
T1 construct: whole, on cells; also called Ba/F3-HLA-DP

HLA-DQ5.1 on Ba/F3 cells = molecular target: T2, HLA-DQ5.1 on Ba/F3 cells (human, limits assumed); assay: FACS, Ba/F3 cells; raw MFI
T2 construct: whole, on cells; also called Ba/F3-HLA-DQ5.1
T2 MHC II alpha: not shown
T2 MHC II beta: not shown

HLA-DQ6.3 on Ba/F3 cells = molecular target: T3, HLA-DQ6.3 on Ba/F3 cells (human, UniProt P01920 33-230, limits assumed); assay: FACS, Ba/F3 cells; raw MFI
T3 construct: whole, on cells; also called Ba/F3-HLA-DQ6.3
T3 MHC II alpha: not shown
T3 MHC II beta: not shown

HLA-DR on Ba/F3 cells = molecular target: T4, HLA-DR on Ba/F3 cells (human, UniProt P01903 26-216; P79483 30-227, limits assumed); assay: FACS, Ba/F3 cells; raw MFI
T4 construct: whole, on cells; also called Ba/F3-HLA-DR
T4 MHC II alpha: not shown
T4 MHC II beta: not shown

HLA-DQ7.5 on Ba/F3 cells [1] = molecular target: T5, HLA-DQ7.5 on Ba/F3 cells (human, UniProt P01909 24-216; P01920 33-230, limits assumed); assay: FACS, Ba/F3 cells; %MFI: IC17dK 0, DQN0139bb 100
T5 construct: whole, on cells; also called Ba/F3-HLA-DQ7.5

HLA-DQ2.2 on Ba/F3 cells [2] = molecular target: T6, HLA-DQ2.2 on Ba/F3 cells (human, UniProt P01909 24-216, limits assumed); assay: FACS, Ba/F3 cells; %MFI: IC17dK 0, DQN0139bb 100
T6 construct: whole, on cells; also called Ba/F3-HLA-DQ2.2
T6 MHC II alpha: not shown
T6 MHC II beta: not shown

HLA-DQ2.5 on Ba/F3 cells [3] = molecular target: T7, HLA-DQ2.5 on Ba/F3 cells (human, UniProt P01909 24-216, limits assumed); assay: FACS, Ba/F3 cells; %MFI: IC17dK 0, DQN0139bb 100
T7 construct: whole, on cells; MHC class II without fused peptide; also called Ba/F3-HLA-DQ2.5

HLA-DQ8 on Ba/F3 cells [4] = molecular target: T8, HLA-DQ8 on Ba/F3 cells (human, UniProt P01909 24-216; P01920 33-230, limits assumed); assay: FACS, Ba/F3 cells; %MFI: IC17dK 0, DQN0139bb 100
T8 construct: whole, on cells; also called Ba/F3-HLA-DQ8
T8 MHC II alpha: not shown
T8 MHC II beta: not shown

HLA-DQ7.3 on Ba/F3 cells [5] = molecular target: T9, HLA-DQ7.3 on Ba/F3 cells (human, UniProt P01909 24-216; P01920 33-230, limits assumed); assay: FACS, Ba/F3 cells; %MFI: IC17dK 0, DQN0139bb 100
T9 construct: whole, on cells; also called Ba/F3-HLA-DQ7.3
T9 MHC II alpha: not shown
T9 MHC II beta: not shown

[6] = molecular target: HLA-DQ2.5 on IHW09023 cells loaded with 33mer gliadin peptide (human; wheat); assay: cell-based or functional assay
[7] = molecular target: HLA-DQ2.5 on IHW09023 cells loaded with gamma 1 gliadin peptide (human; wheat); assay: cell-based or functional assay
[8] = molecular target: HLA-DQ2.5 on IHW09023 cells loaded with gamma 4a gliadin peptide (human; wheat); assay: cell-based or functional assay
[9] = molecular target: HLA-DQ2.5 on IHW09023 cells loaded with omega1/2 gliadin peptide (human; wheat); assay: cell-based or functional assay
[10] = molecular target: HLA-DQ2.5 on IHW09023 cells loaded with gamma 4d gliadin peptide (human; wheat); assay: cell-based or functional assay
[11] = molecular target: HLA-DQ2.5 on IHW09023 cells loaded with BC hordein peptide (human; barley); assay: cell-based or functional assay
[12] = molecular target: HLA-DQ2.5 on IHW09023 cells loaded with gamma 3 gliadin peptide (human; wheat); assay: cell-based or functional assay
[13] = molecular target: HLA-DQ2.5 on IHW09023 cells loaded with gamma 2 gliadin peptide (human; wheat); assay: cell-based or functional assay
HLA-DQ7.5 on Ba/F3 cells [14] = molecular target: T5, HLA-DQ7.5 on Ba/F3 cells; assay: FACS, Ba/F3 cells; %MFI: IC17dK 0, DQN0139bb 100; remark: listed apart in the source
HLA-DQ2.2 on Ba/F3 cells [15] = molecular target: T6, HLA-DQ2.2 on Ba/F3 cells; assay: FACS, Ba/F3 cells; %MFI: IC17dK 0, DQN0139bb 100
HLA-DQ2.5 on Ba/F3 cells [16] = molecular target: T7, HLA-DQ2.5 on Ba/F3 cells; assay: FACS, Ba/F3 cells; %MFI: IC17dK 0, DQN0139bb 100; remark: listed apart in the source
HLA-DQ8 on Ba/F3 cells [17] = molecular target: T8, HLA-DQ8 on Ba/F3 cells; assay: FACS, Ba/F3 cells; %MFI: IC17dK 0, DQN0139bb 100
HLA-DQ7.3 on Ba/F3 cells [18] = molecular target: T9, HLA-DQ7.3 on Ba/F3 cells; assay: FACS, Ba/F3 cells; %MFI: IC17dK 0, DQN0139bb 100

T1 sequence (P20036 29-222 limits assumed, chain 1 of 4, other chains not shown): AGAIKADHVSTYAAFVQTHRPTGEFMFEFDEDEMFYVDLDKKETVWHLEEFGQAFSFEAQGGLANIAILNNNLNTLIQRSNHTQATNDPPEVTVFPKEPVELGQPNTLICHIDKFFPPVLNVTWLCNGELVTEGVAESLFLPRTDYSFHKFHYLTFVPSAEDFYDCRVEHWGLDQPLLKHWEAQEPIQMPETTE
T1 sequence (P04440 30-225 limits assumed, chain 2 of 4, other chains not shown): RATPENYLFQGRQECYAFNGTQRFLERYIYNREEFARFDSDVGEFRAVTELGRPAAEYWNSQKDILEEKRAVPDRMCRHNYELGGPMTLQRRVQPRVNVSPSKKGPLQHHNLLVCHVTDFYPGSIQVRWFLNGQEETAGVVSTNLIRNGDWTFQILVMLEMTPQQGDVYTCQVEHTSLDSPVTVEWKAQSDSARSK

| Binder | binding result (HLA-DP on Ba/F3 cells) | binding result (HLA-DQ5.1 on Ba/F3 cells) | binding result (HLA-DQ6.3 on Ba/F3 cells) | binding result (HLA-DR on Ba/F3 cells) | IC50 (ng/mL), α1a gliadin TCR, 250 nM 33mer gliadin [6] | IC50 (ng/mL), α1b gliadin TCR, 250 nM 33mer gliadin [6] | IC50 (ng/mL), α2 gliadin TCR, 250 nM 33mer gliadin [6] | IC50 (ng/mL), γ1 gliadin TCR, 250 nM γ1 gliadin [7] | IC50 (ng/mL), γ4a gliadin TCR, 25 µM γ4a gliadin [8] | IC50 (ng/mL), ω1 gliadin TCR, 25 µM ω1/2 gliadin [9] | IC50 (ng/mL), γ4d gliadin TCR, 100 µM γ4d gliadin [10] | IC50 (ng/mL), BC hordein TCR, 250 nM BC hordein [11] | IC50 (ng/mL), γ3 gliadin TCR, 100 µM γ3 gliadin [12] | IC50 (ng/mL), γ2 gliadin TCR, 250 nM γ2 gliadin [13] | further results |
| --- | --- | --- | --- | --- | --- | --- | --- | --- | --- | --- | --- | --- | --- | --- | --- |
| DQN0344H1013/L0620//DQN0385H1270/L0722-F6 (bispecific antibody) heavy 1: QVQLVESGGGVVQPGRSLRLSCAASGFTFSSAYWMVWVRQAPGQGLEWMGAVYGGSDTTYYAKWTEGRFTISRDTSKNTLYLQMNSLRAEDTAVYYCAREPLNYYYYGELNVWGQGTLVTVSSASTKGPSVFPLAPSSKSTSGGTAALGCLVKDYFPEPVTVSWNSGALTSGVHTFPAVLKSSGLYSLSSVVTVPSSSLGTQTYICNVNHKPSNTKVDKRVEPKSCDKTHTCPPCPAPELRRGPSVFLFPPKPKDTLMISRTPEVTCVVVDVSHEDPEVKFNWYVDGVEVHNAKTKPREEQYNSTYRVVSVLTVLHQDWLNGKEYKCKVSNKALPAPIEKTISKAKGQPREPQVYTLPPSREEMTKNQVSLTCLVKGFYPSDIAVEWESNGQPENNYKTTPPYLDSDGSFFLYSKLTVDKSRWQEGNVFSCSVLHEALHAHYTREELSLSP light 1: DIQMTQSPSSLSASVGDRVTITCQATENIYSGLAWYQQKPGKAPKLLIYYVSTLAYGIPARFSGSGSGTDFTLTISSLEPEDFAVYYCQTYEDVSAVTFGQGTKVEIKRTVAAPSVFIFPPSDEQLKSGTAEVVCLLNNFYPREAKVQWKVDNALQSGNSEESVTEQDSKDSTYSLSSTLTLSKADYEKHKVYACEVTHQGLSSPVTKSFNRGEC heavy 2: QVQLVESGGGVVQPGRSLRLSCAASGFTFSEWYFMSWVRQAPGKGLEWVASIDTGSGSIDYAEWVEGRFTISRDNSKNTLYLQMNSLRAEDTAVYYCARDIGIDYNFWGPGTLVTVSSASTKGPSVFPLAPSSKSTSGGTAALGCLVEDYFPEPVTVSWNSGALTSGVHTFPAVLESSGLYSLSSVVTVPSSSLGTKTYICNVNHKPSNTKVDKRVEPKSCDKTHTCPPCPAPELRRGPSVFLFPPKPKDTLMISRTPEVTCVVVDVSHEDPEVKFNWYVDGVEVHNAKTKPREEQYNSTYRVVSVLTVLHQDWLNGKEYKCKVSNKALPAPIEKTISKAKGQPREPQVYTLPPSRKEMTKNQVSLTCLVKGFYPSDIAVEWESNGQPENNYKTTPPYLDSDGSFFLYSKLTVDKSRWQQGNVFSCSVLHEALHAHYTRKELSLSP light 2: DIQMTQSPSSLSASVGDRVTITCQTTQSISSYLNWYQQKPGQPPKLLIYYASTKAEGIPARFSGSGLGTDFTLTISSLQPEDFAVYYCHYGISKVSFGQGTKVEIKRTVAAPSVFIFPPSDEQLKSGTAKVVCLLNNFYPREAKVQWKVDNALQSGNSKESVTEQDSKDSTYSLSSTLTLSKADYEKHKVYACEVTHQGLSSPVTKSFNRGEC | no binding (tested: 0.05 micro g/mL) | no binding (tested: 0.05 micro g/mL) | no binding (tested: 0.05 micro g/mL) | no binding (tested: 0.05 micro g/mL) | 0.27 ng/mL | 1.25 ng/mL | 0.33 ng/mL | 1.03 ng/mL | 1150 ng/mL | 2.17 ng/mL | 10.1 ng/mL | 9.7 ng/mL | 3.31 ng/mL | 277 ng/mL | binding result (HLA-DQ7.5 on Ba/F3 cells [1]): no binding (tested: 0.05 micro g/mL); binding result (HLA-DQ2.2 on Ba/F3 cells [2]): no binding (tested: 0.05 micro g/mL); binding result (HLA-DQ2.5 on Ba/F3 cells [3]): no binding (tested: 0.05 micro g/mL); binding result (HLA-DQ8 on Ba/F3 cells [4]): no binding (tested: 0.05 micro g/mL); binding result (HLA-DQ7.3 on Ba/F3 cells [5]): no binding (tested: 0.05 micro g/mL); IC50 (ng/mL), ω2 gliadin TCR, 250 nM ω1/2 gliadin [9]: 0.22 ng/mL |
| DQN0344H1013/L0620//DQN0385H1521/L0605-F6 (bispecific antibody) heavy 1: QVQLVESGGGVVQPGRSLRLSCAASGFTFSSAYWMVWVRQAPGQGLEWMGAVYGGSDTTYYAKWTEGRFTISRDTSKNTLYLQMNSLRAEDTAVYYCAREPLNYYYYGELNVWGQGTLVTVSSASTKGPSVFPLAPSSKSTSGGTAALGCLVKDYFPEPVTVSWNSGALTSGVHTFPAVLKSSGLYSLSSVVTVPSSSLGTQTYICNVNHKPSNTKVDKRVEPKSCDKTHTCPPCPAPELRRGPSVFLFPPKPKDTLMISRTPEVTCVVVDVSHEDPEVKFNWYVDGVEVHNAKTKPREEQYNSTYRVVSVLTVLHQDWLNGKEYKCKVSNKALPAPIEKTISKAKGQPREPQVYTLPPSREEMTKNQVSLTCLVKGFYPSDIAVEWESNGQPENNYKTTPPYLDSDGSFFLYSKLTVDKSRWQEGNVFSCSVLHEALHAHYTREELSLSP light 1: DIQMTQSPSSLSASVGDRVTITCQATENIYSGLAWYQQKPGKAPKLLIYYVSTLAYGIPARFSGSGSGTDFTLTISSLEPEDFAVYYCQTYEDVSAVTFGQGTKVEIKRTVAAPSVFIFPPSDEQLKSGTAEVVCLLNNFYPREAKVQWKVDNALQSGNSEESVTEQDSKDSTYSLSSTLTLSKADYEKHKVYACEVTHQGLSSPVTKSFNRGEC heavy 2: QVQLVESGGGVVQPGRSLRLSCAASGFTFESWYFMSWVRQAPGKGLEWVASIDTGSGSIDYAEWVEGRFTISRDNSKNTLYLQMNSLRAEDTAVYYCARDIGIDYNFWGPGTLVTVSSASTKGPSVFPLAPSSKSTSGGTAALGCLVEDYFPEPVTVSWNSGALTSGVHTFPAVLESSGLYSLSSVVTVPSSSLGTKTYICNVNHKPSNTKVDKRVEPKSCDKTHTCPPCPAPELRRGPSVFLFPPKPKDTLMISRTPEVTCVVVDVSHEDPEVKFNWYVDGVEVHNAKTKPREEQYNSTYRVVSVLTVLHQDWLNGKEYKCKVSNKALPAPIEKTISKAKGQPREPQVYTLPPSRKEMTKNQVSLTCLVKGFYPSDIAVEWESNGQPENNYKTTPPYLDSDGSFFLYSKLTVDKSRWQQGNVFSCSVLHEALHAHYTRKELSLSP light 2: DIQMTQSPSSLSASVGDRVTITCQTTQSISSYLNWYQQKPGQPPKLLIYYASTKAEGIPARFSGSGSGTDFTLTISSLEPEDFAVYYCHYGISKVSFGQGTKVEIKRTVAAPSVFIFPPSDEQLKSGTAKVVCLLNNFYPREAKVQWKVDNALQSGNSKESVTEQDSKDSTYSLSSTLTLSKADYEKHKVYACEVTHQGLSSPVTKSFNRGEC | no binding (tested: 0.05 micro g/mL) | no binding (tested: 0.05 micro g/mL) | no binding (tested: 0.05 micro g/mL) | no binding (tested: 0.05 micro g/mL) | 0.28 ng/mL | 1.76 ng/mL | 0.33 ng/mL | 0.68 ng/mL | 1350 ng/mL | 1.91 ng/mL | 13 ng/mL | 8.98 ng/mL | 1.4 ng/mL | 853 ng/mL | binding result (HLA-DQ7.5 on Ba/F3 cells [14]): no binding (tested: 0.05 micro g/mL); binding result (HLA-DQ2.2 on Ba/F3 cells [15]): no binding (tested: 0.05 micro g/mL); binding result (HLA-DQ2.5 on Ba/F3 cells [16]): no binding (tested: 0.05 micro g/mL); binding result (HLA-DQ8 on Ba/F3 cells [17]): no binding (tested: 0.05 micro g/mL); binding result (HLA-DQ7.3 on Ba/F3 cells [18]): no binding (tested: 0.05 micro g/mL) |
